Measurements as given in the DeepSol protein solubility set.

Assay: soluble on expression in E. coli; label from the status in PepcDB or PDB records

Sequence	soluble on expression in E. coli
MGSDKIHHHHHHMDSYKQYIKEALPNLSIHSYKQNEEGWDNVAIIVNDELLFRFPRKQEYAMRIPLEKELCTLLSCSLHEIEVPKYHLFYEKNTDAIPLCSYYTLIHGEPLKTEIVTTLEKQERKALITQLATFLAALHSIPLKSVTALGFPIEKTLTYWKELQAKLNEYVTNSLTSFQKSTLNRLFENFFACLATSKFQNTIIHADFTHHHILFDKQNKTISGVIDFGDAQIGDPAFDFAGLYYDFGHEFTTSVYEQYSTLTSHHDPLLIHRITSFYQYSPLLHNMIYNFETKNELEFLASIEQLKVILQG	not soluble
MGSDKIHHHHHHMDTRKNVSGAERKIWSLIRDCSGKLEGVTETSVLEVLLIVSRVLGIRKEDLFLKDLGVSPTEEKRILELVEKRASGYPLHYILGEKEFMGLSFLVEEGVFVPRPETEELVELALELIRKYGIKTVADIGTGSGAIGVSVAKFSDAIVFATDVSSKAVEIARKNAERHGVSDRFFVRKGEFLEPFKEKFASIEMILSNPPYVKSSAHLPKDVLFEPPEALFGGEDGLDFYREFFGRYDTSGKIVLMEIGEDQVEELKKIVSDTVFLKDSAGKYRFLLLNRRSS	soluble
MGSDKIHHHHHHMDVFSDRVLLTEESPIRKLVPFAEMAKKRGVRIHHLNIGQPDLKTPEVFFERIYENKPEVVYYSHSAGIWELREAFASYYKRRQRVDVKPENVLVTNGGSEAILFSFAVIANPGDEILVLEPFYANYNAFAKIAGVKLIPVTRRMEEGFAIPQNLESFINERTKGIVLSNPCNPTGVVYGKDEMRYLVEIAERHGLFLIVDEVYSEIVFRGEFASALSIESDKVVVIDSVSKKFSACGARVGCLITRNEELISHAMKLAQGRLAPPLLEQIGSVGLLNLDDSFFDFVRETYRERVETVLKKLEEHGLKRFTKPSGAFYITAELPVEDAEEFARWMLTDFNMDGETTMVAPLRGFYLTPGLGKKEIRIACVLEKDLLSRAIDVLMEGLKMFCSSRISC	soluble
MGSDKIHHHHHHMDVVLHIGAHRTASSALQHHLSRNRSKLAEAGVVYWGPKITRGGLFRGAIGGVEGALPWQERRFGKRCALRAEAVRQTGATHLMISDENMVGSLRGALEFTRLYSDAGRRIASYAHGFKTHRMTVALCIRDYADWWVSAMAFRLPRGGPLPRTQARERLVTQPRRWRHVVEDLAQALPDARLVVWSYEASAHALPTLVGDLTGVASADDRAGPRNLRPTAADLHDLMDACDIDPDMFHWPDGQFMPFTVHETEALRAQYQEDLAWLRAGARGFADYIDAPSAQTEAPTDLGRGNPDDGEHRQLA	not soluble
MGSDKIHHHHHHMDWGIYMKQLPFKAVAVDVDGTFENDKKEYDHEMFGEILYRLHKHGAHFIIASGRPAGRLSDDFGDFIDSVDFVADNGAVLVRDGKIIRTTCFSKKGILHLIDYMHQRYPGSVTTLLISGVKHSYFLKSTPPEFKRSHHYFYPNSIEIDDFSQIPADDQYTKITVDYPSKVRHELEYGFNSRSMEKIHVTTSGWNYMDIIPQGVNKATGLKEFLAYLDVPRSELIAFGDGENDIEMLKLAGLSYAMENGQNSVKKIANFIAPSNNDNGVFKVLNHYLNEVNK	not soluble
MGSDKIHHHHHHMEAKKSKAIVFSGVNQIELREVTLKPVSSTDVLVETWWSSISTGTEKMALNGLIPSPPFIFPFIPGYETVGRIVEAGDHVNQGLIGKFAYVAGSFGYEDVNAAFGGASQFIVCPVESLTVLDGIANPQCGIALPLGATALHIVDLAEVKNRKVLVLGQGAVGILAAELAKRFGASLVAVTEPHQRRLDISTSDIKVNPEKQDVSVALAGHEFDVLIDSTGIMSAIETGLRFLKFHGKVIFGGYYQRMNIDYSQAFNKELSFIAARQWAKGDLHRVRELIAAGKINAEKIFTHQCTVDDNLMEAYMQAFSDSDCLKMIIHWKHGNEAGEHFPTCNTAN	not soluble
MGSDKIHHHHHHMEAQDHNNEQQVTEYQVMSYLRAHPQFFEHHTGLLAELYLPSPHGQGTVSLAERQQLAQRDRIRVLDAKLAQLMKYGEENDAIGEKVHRLSLGLLATERMEVLVSLLEHSLHEDFQVPYVSLRLWAKPRESGNGSLPIFASVDQELQRWAQGLATPYCGNRPGMPLQGWFGVEARPASFAVMALKAQQVFGVLALASDDDKRFYPDMGTLYLKRISELISAALLRHIIV	not soluble
MGSDKIHHHHHHMEGHIVITGATGVIGSEVARRLIKSGREVVVFARSPQSAAAKVPGAADYVRWDSDMAPDGWSSSIDGAYAVIHLAGRPLLETRWTEEHKVACYDSRIKGTRALVAAMASASVKPKVFVSSSAIGYYGSFDRCEETDPLTEKAAPGKDFLAKICFDWEKEARPAETLGTRVVLLRTGIVLSTKGGMLQKMMIPFSYFVGGPVGSGDQCLSWIHLDDEVSIILQALDNADWSGPVNAVAPEPVSMKAFADSLGLVMHRPSLFPVPKLAVQILLGEGADYAVKGQKVSPEFLKERDFHFAWPSLNEALADLVSRGI	not soluble
MGSDKIHHHHHHMEHECDTLPHWLTGSPQGEAGHTPAACNSAVAAQPAYPAGTRQPEKSAHAAEASRAHDRTATGVAPTGFLTLFTEEEIGTPSPAARRAAPVISPLVRFGSAQDRIEFVRQRIRQLGFDSFSYSATRTSAHHKTMFVLTSYESRSWLTRYFRERYFELDPRVALASPTGLPFLWNTADMRADLPRAQMRSERLGGLIDMLEATGRKSGILTQMPLPEPELSASLCFNSETGNPRWMTESIVAETLMFAHMIHEFIWTHAKSVIGIAPAQQQRVTLSELQHAVLRAVVQGQRDKEIAYFLGLSPHNVDYHLRRLRQLFNVRNRVQLINVAQAYVS	not soluble
MGSDKIHHHHHHMEIAVLGGGNGSTAAAVDLTAQGHNIRFWRRNASAQAELKARGNVITLKDFEGARPIRITMVTDDIGEAIRGAELIVCPTPATAQSDIAAAMAPHLADGQVVFLPPGSFGSWIMADIVRKAGNHADVSWAETGTLPYLTRLHGADTVAITTRATRLPTGVYPLRNAEHAHSVLARAYPAVEPAGDALSGALMNAGPIIHPPLITMNAGPIEHFDHWDIHNEGTQPAIRRVTTRLDAERMAVREALGYGAPHFPLADHYETSDWMYGNLAHDKLVDSGDWREHLVLTEHRYMREDVAVGLALLVSVADWAGVPAPTATGLLALGSAICDDDFRQSGRTLENLGLADMDRAALQTMLRDGA	not soluble
MGSDKIHHHHHHMEIGIIGTGNIGGTLARKLIAAGHQVRVANSKGIHGVQSFADEIGATAVDVYGAVKGADAIILSIPLPALASLPNGFFDDLPETVPLIDTSNYYPGLRDPLIPEIDDGMTESVWVSQQLSHPVIKAFNNILAWSLAELGTPKGSASRLAIAVAGDNATLKQIVMNLVDDTGFDAIDAGSLEESWRQQPSTPAYCCDYDAETMKKGLTAAVRGEAASKRDRLPELFGKLGANPTHEDIVAMNRSLNP	not soluble
MGSDKIHHHHHHMEIIAHRGFWNKESEKNTLTAIKRAIDNGYGFETDYRDNNGTIVISHNMPLGNEPTAEEIFRLYRDSGTESTLALNIKADGLQELLKDMLNTYQIKKYFLFDMSIPDTIDYILDNMNIATRHSEYEKEFPFYSQSSYVWMDCFKSEWISWGNLEEHLKSGKKVCIVSPELHRRPYKEVWNKYASFNHANLMLCTDFPMEADFFFNK	not soluble
MGSDKIHHHHHHMEIKGKVHYVGVNDRNKALFENLWPLPYGVSYNSYLIDDEMVALVDTVDVCYFEVYLKKIRSIIGDKPINYLIINHMEPDHSGSISLIKQYYPNIVIVGNKKTFEMIEGYYGVGGERYVVGEGDFLALGHHRLRFSLIPMVHWPETMVTFDETEGILFSGDAFGCFGALNGGVVDTNINTDIYWNEMVRYYSNIVGKYGAPVQKALQKLQNLKITTVCSTHGPVWTEEIPRVVRIYDRLSRYEAEEGVVIAYGSMYGNTEEVAEAIAEELSKQGIRNIVMHNVSHTSHSFIIADVFKYKGLIVGCPTYNTQMYPEMEALLSKLASREIKGRYLGYFGSFTWASAAVKKIAEFNDKLKFEPVGNPVEMKHSMKAETNTQAKELAKAMADRLKADRK	not soluble
MGSDKIHHHHHHMEILSVGEKIKRARIYKRLTLKDICDDKVSVSKMSCIENGKITPDNEILEFVAKKLNVALDYLKYDVKDQFQSNLDNLKDIEEGKKDEYLRYNVYYAEQYEYYDIAFQFMHELFNLYVNKNKLDIVQSLTSEYYDICRKVTDCDNRSMYNLDIGKYLLASREYRQAINYYSRVRKELKTGFSENKKRIKMLIESYYYETLSYILCEDYDNAYELEKELLELIEYVDTDNQHAKIYSVMMFLCLKKNIDQFDYYKEKIENYCDINSEIKARVMYVCALKMINDEKVEEAKGYIAKALEQFQGKIENKYIPFIVELVNEVSRRNNLERYRGICDLILDYSIGIENSVLMERCYYLKSRIFKASNDLESYEMYMNLALDLLIKSGNEDDIYTRYMEMGNMYSTLGNVKDALRYFNLAINMSNKM	not soluble
MGSDKIHHHHHHMEINKIYCMDCLEGMKQLKDKTVDVVVTSPPYNIGIKYNKYSDNLSREDYLNWIEEVVKEIKRVLKDDGSFFINVGYTAKDPWIAFDVANVIRKHFKLQNTIHWVKSIAIQKEDVGNYPNIIGDIAVGHYKPINSDRFLSIMHEYIFHFTKNGNVKLDKLAIGVPYQDKSNIKRFNRKGDLRDRGNTWFIPYETIQSKEKERPHPATFPPKLPEMCIKLHGVKKTNLVLDPFMGIGSTAIACIRLGIDYIGFEIDEYYCRVAEERIKKELLKTDGKFDNVKNKNIITLDAFI	not soluble
MGSDKIHHHHHHMEKFDVIVVGGGPAGLSAAISAAQAGMKTAVIERGDYPGTKNVMGGVLYTEATNEVVPDFWKEAPLERPVIEQRYAFLSKDEILSAGYRDPAWGQPPYNAHTVLRVKFDRWLADQAVKAGVMIITETLVEDLLYHGDDVVGVRTGRAEGDLGAQVVILAEGANNFLACKAGLAKPLRPENMAVVVKEIIELPPEKIEDRFCLEPHEGATIELFGDSTDGMMGTSFIYTNKNSLSIGVGAMVHSMSEKGWSPNDLLENLKAKPYVKRLLQGGETKEYLAHLIPEGGYNAIPKLYRQGVMVVGDTAMFVNGLNREGSNLAMISGKIAGKVAAEAIQSGDLSAHGMSVYESRLRDSFVIKDLYKFRKLMPFIESNPHLLGQYPEILNQAARMYFTADGTPKAQVFSNIMDMMFKKRTKTGLVKDMFNAWRALK	not soluble
MGSDKIHHHHHHMEKLEKTVDMNIQQMINLSVLELVKLGLKYGIFKAVSKKISYIDLLNQVDVPNKPLLKKLIDHLKLLGIIEETPTHLLLNSFSYEIRFPKEEHMYLLPDWIPSFEEIYRMVDFALITPNHPHVLMDFDKDADFWDLRLSSTFHEAYRILIAKLGEIGEGSRVLDIGCGSASPAYFGKLVGEEGEYVGVDYSPALLEIAKNRTEGLPVKLKEMDASLIKPKNKYDVAIMSFVLEYIENRRSALRNALDSLESGGKLIIVDAFKDEFRNVEALEFFEGLNSAFREYPSKKYIKEVILDEGFEVKFGDYGKAILLIEKL	not soluble
MGSDKIHHHHHHMEKSSIYGLTWTNLTEWLEAHGQKKFRATQVWDWLYRKRVKTFEEMSNVPKETIELLTANFVMNTLEEQVVQESTDGTTKYLFKLSDGNLIETVMMKQEYGLSVCVTTQVGCNIGCTFCASGLLKKSRDLTAGEIVEQIMNVQHYLDGRNLEERVSHVVVMGIGEPFDNYDNVMDFLRVINHDKGLAIGARHITVSTSGLAPRIIDFANEDFQVNLAISLHAPNNELRTSIMRINKTYSIEKLMEAIHYYVNKTNRRITFEYIMLKGVNDHKKEALELAALLGEHRHLAYVNLIPYNPVDEHIDYERSTKEDVLAFYDTLKKNGINCVIRREHGTDIDAACGQLRSKQIKRVGVRERMKQKQAAAEE	not soluble
